Assay results as given in US20040002442A1 (Bayer, published 2004).
Substitutions are numbered along the chain they refer to. Ends that are not written are not given here. * marks the point of attachment. Palmitoyl = CCCCCCCCCCCCCCCC(=O)*

T1: GLP-1 receptor present in the plasma membranes isolated from RINm5F cells (UniProt P32301 22-463, limits assumed)
T1 sequence (looked up): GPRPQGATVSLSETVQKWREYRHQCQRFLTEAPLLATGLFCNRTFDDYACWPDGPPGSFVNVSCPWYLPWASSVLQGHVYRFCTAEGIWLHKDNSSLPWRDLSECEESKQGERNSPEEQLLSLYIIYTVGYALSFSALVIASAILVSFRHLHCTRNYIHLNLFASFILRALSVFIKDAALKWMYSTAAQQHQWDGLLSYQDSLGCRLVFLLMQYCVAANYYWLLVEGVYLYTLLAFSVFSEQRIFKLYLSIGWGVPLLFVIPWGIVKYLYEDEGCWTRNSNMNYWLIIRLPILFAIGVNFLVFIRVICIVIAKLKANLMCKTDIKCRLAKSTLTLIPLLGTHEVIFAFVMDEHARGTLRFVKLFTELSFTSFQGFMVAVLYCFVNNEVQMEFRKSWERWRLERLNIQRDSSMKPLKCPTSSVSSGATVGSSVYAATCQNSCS

B1: G5 (peptide)
peptide: HSQGTFTSDYSKYLEGQAAKEFIAWLVKGR-NH2
B2: G1 (peptide)
peptide: HSQGTFTSDYSKYLDSRRAQDFVQWLVKGR-NH2
B3: G182 (peptide)
peptide: HSQGTFTSDYARYLDARRAREFIKWLVRGRGK(Palmitoyl)
B4: G51 (peptide)
peptide: HSQGTFTSDYAKYLDARRAKEFIAWLVKGRG
B5: G74 (peptide)
peptide: B4 peptide with K28C
B6: G75 (peptide)
peptide: B4 peptide with G29C
B7: G77 (peptide)
peptide: B4 peptide with G31C
B8: G60 (peptide)
peptide: B4 peptide with R17A, R18K
B9: G59 (peptide)
peptide: B4 peptide with K12R, R17K, R18K
B10: G185 (peptide)
peptide: HSQGTFTSDYARYLDARRAREFIKWLVRGRC
B11: G90 (peptide)
peptide: HSQGTFTSDYARYLDARRAREFIK(Palmitoyl)WLVRGRG
B12: G83 (peptide)
peptide: B10 peptide with C31G
B13: G71 (peptide)
peptide: B4 peptide with K20C
B14: G61 (peptide)
peptide: B4 peptide with K12R, R17A, R18K
B15: G84 (peptide)
peptide: B4 peptide with K12R, K20R
B16: G76 (peptide)
peptide: B4 peptide with R30C
B17: G88 (peptide)
peptide: HSQGTFTSDYAKYLDARRAKEFIAWLVKGRK(Palmitoyl)
B18: G58 (peptide)
peptide: B4 peptide with R17K, R18K
B19: G82 (peptide)
peptide: B4 peptide with K12R, K28R
B20: G2185 (peptide)
peptide: HSQGTFTSDYARYLDARRAREFIKWLVRGRC(PEG22kD)
B21: G4185 (peptide)
peptide: HSQGTFTSDYARYLDARRAREFIKWLVRGRC(PEG43kD)
B22: G183 (peptide)
peptide: HSQGTFTSDYARYLDARRAK(Palmitoyl)EFIKWLVRGRG
modifications: not fully specified; printed as HSQGTFTSDYARYLDARRAK(FA)EFIKWLVRGRG
B23: G277 (peptide)
peptide: HSQGTFTSDYAKYLDARRAKEFIAWLVKGRC(PEG22kD)
B24: G27 (peptide)
peptide: HSQGTFTSDYAKYLDARRAKEFIAWLVKGR-NH2
B25: G57 (peptide)
peptide: HSQGTFTSDYAKYLDAARAKEFIAWLVKGR-NH2
B26: G56 (peptide)
peptide: HSQGTFTSDYAAYLDARRAKEFIAWLVKGR-NH2
B27: G55 (peptide)
peptide: HSQGTFTSDYARYLDARRAKEFIAWLVKGR-NH2

Columns and labels:
[1] = molecular target: T1, GLP-1 receptor present in the plasma …; test: cell-based or functional assay
[2] = molecular target: T1, GLP-1 receptor present in the plasma …; test: 125I-GLP-1 displacement, RINm5F plasma membranes
Experimental: (§1) Competitive binding of some polypeptides of the invention to RINm5F cell plasma membranes was measured as follows. Ninety-six-well GF/C filtration plates (Millipore, Bedford, Ma.) were blocked with 0.3% PEI for at least one hour and washed twice with binding buffer consisting of 20 mM Tris, 2 mM EDTA, pH 7.5, 1 mg/ml BSA, and 1 mg/ml bacitracin. […] The plates were dried, scintillant was added to each well, and cpm per well determined using a Wallac Microbeta counter.

[3] = molecular target: T2, glucagon receptor present in the plasma membranes isolated from rat liver (rat, UniProt P30082 27-485); test: 125I-glucagon displacement, rat liver plasma membranes
T2 construct: whole, on cells
T2 sequence (P30082 27-485): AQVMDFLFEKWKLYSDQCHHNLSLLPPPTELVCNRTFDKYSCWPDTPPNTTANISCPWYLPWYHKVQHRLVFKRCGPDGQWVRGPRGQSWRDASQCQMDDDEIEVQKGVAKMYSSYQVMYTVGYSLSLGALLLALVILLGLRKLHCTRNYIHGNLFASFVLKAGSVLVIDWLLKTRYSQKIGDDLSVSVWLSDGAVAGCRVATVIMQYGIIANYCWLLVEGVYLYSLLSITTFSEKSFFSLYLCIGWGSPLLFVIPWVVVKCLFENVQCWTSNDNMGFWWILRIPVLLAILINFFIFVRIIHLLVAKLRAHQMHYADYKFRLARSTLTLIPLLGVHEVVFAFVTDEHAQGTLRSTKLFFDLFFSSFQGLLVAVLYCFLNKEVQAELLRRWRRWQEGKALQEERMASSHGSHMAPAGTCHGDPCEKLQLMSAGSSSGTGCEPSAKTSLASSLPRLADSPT
Experimental: as §1, with “rat liver” for “RINm5F cell”, “0.1%” for “0.3%”

[4] = molecular target: T2, glucagon receptor present in the plasma …; test: cell-based or functional assay

| Binder | % GLP1 max, cAMP SPA in RINm5F cells [1] | Relative Potency (%), cAMP SPA in RINm5F cells [1] | IC50 [2] | IC50 [3] | % Inhib glucagon stimulated cAMP increase (10 uM peptide, rat hepatocytes) [4] |
| --- | --- | --- | --- | --- | --- |
| B1 | 109% | 69.9% | 0.0005 µM | 0.243 µM | – |
| B2 | 112% | 6.9% | 0.006 µM | 0.0066 µM | – |
| B3 | 104% | 1.4% | 0.0126 µM | 0.22 µM | – |
| B4 | 91.2% | 58.1% | 0.0082 µM | 0.154 µM | 35.2% |
| B5 | 88.7% | 8.4% | 0.0044 µM | 0.0217 µM | 23.7% |
| B6 | 86.1% | 6.6% | 0.0077 µM | 0.054 µM | 17.1% |
| B7 | 92.1% | 9.5% | 0.0089 µM | 0.0611 µM | 18.6% |
| B8 | 95.7% | 22.3% | 0.0138 µM | 0.682 µM | 21.8% |
| B9 | 102% | 22.7% | 0.0021 µM | 0.0975 µM | 41.1% |
| B10 | 104% | 13% | 0.0045 µM | 0.048 µM | 32% |
| B11 | 83.5% | 0.8% | 0.0254 µM | 0.726 µM | – |
| B12 | 89.4% | 29.9% | 0.0032 µM | 0.0286 µM | 24.7% |
| B13 | 93.3% | 4.3% | 0.0058 µM | 0.0256 µM | 11.3% |
| B14 | 96% | 12.1% | 0.0106 µM | 0.232 µM | 45.2% |
| B15 | 114% | 61.8% | 0.0014 µM | 0.0117 µM | 25.2% |
| B16 | 85% | 7.7% | 0.0102 µM | 0.0591 µM | 23% |
| B17 | 118% | 2.3% | 0.109 µM | 0.35 µM | – |
| B18 | 99% | 76.1% | 0.0069 µM | 0.164 µM | 32.6% |
| B19 | 97.1% | 29.9% | 0.0081 µM | 0.0336 µM | 30.2% |
| B20 | 113% | 6.2% | 0.0561 µM | 0.347 µM | – |
| B21 | 98.3% | 0.7% | 0.248 µM | 0.547 µM | – |
| B22 | 90.5% | 0.6% | 0.159 µM | 0.663 µM | – |
| B23 | 93.7% | 1.8% | – | 0.0655 µM | – |
| B24 | 98.1% | 13.4% | 0.0022 µM | 0.0693 µM | 31% |
| B25 | 132% | 18.3% | 0.0147 µM | 0.177 µM | 18.4% |
| B26 | 115% | 37.2% | 0.0066 µM | 0.125 µM | 28.6% |
| B27 | 116% | 18.6% | 0.0098 µM | 0.139 µM | 32.1% |
